According to US20110171285A1, “Design of Fibrinogen and Fibrinogen Derived Products with Reduced Bacterial Binding by Using Modified Sequences of Fibrinogen Chains” (priority 2009, published 2011):
Like-named read-outs stand apart in the source and are kept apart here.

Tests used:
[1] = biological target: recombinant ClfA229-545 (S. aureus clumping factor A, N2N3 domains), 6xHis tagged (Staphylococcus aureus) (UniProt Q53653)
[2] = biological target: recombinant ClfA229-545 (S. aureus clumping factor A, N2N3 domains), 6xHis tagged (Staphylococcus aureus) (UniProt Q53653); remark: listed apart in the source
human fibrinogen (human) = human fibrinogen (human) (UniProt P02671)
Sequence of human fibrinogen (human) (P02671 20-629 limits assumed, chain 1 of 3): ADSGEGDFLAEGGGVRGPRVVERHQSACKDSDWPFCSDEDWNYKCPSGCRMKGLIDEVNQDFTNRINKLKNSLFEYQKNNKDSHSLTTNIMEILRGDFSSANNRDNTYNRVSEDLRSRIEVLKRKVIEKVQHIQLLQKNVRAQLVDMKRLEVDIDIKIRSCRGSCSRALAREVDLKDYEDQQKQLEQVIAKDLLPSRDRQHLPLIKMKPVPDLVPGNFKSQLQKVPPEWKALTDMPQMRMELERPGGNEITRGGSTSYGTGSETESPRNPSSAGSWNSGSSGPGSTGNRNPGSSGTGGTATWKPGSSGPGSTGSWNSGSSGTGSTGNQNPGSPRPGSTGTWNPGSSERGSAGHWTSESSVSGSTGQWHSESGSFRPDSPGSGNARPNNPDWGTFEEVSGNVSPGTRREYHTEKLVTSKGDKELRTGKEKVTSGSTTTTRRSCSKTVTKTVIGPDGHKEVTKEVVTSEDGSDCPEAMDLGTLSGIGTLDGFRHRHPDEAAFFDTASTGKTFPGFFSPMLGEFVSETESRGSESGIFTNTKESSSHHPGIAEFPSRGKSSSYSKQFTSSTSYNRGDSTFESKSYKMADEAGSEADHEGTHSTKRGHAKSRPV
Sequence of human fibrinogen (human) (P02675 31-491 limits assumed, chain 2 of 3, further chain): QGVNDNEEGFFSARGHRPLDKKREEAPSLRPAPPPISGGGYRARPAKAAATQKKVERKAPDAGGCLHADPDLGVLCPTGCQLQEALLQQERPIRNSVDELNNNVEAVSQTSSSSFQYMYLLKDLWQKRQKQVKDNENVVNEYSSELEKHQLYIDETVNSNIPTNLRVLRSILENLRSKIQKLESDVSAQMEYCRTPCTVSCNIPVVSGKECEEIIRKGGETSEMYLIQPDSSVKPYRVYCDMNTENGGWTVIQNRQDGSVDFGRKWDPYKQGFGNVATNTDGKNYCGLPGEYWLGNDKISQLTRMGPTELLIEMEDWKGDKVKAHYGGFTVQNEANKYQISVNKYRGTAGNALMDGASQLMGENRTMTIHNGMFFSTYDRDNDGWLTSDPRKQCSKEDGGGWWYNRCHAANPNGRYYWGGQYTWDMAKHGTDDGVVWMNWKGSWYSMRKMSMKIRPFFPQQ
Sequence of human fibrinogen (human) (P02679 other isoform, or with tags, fused parts or gaps limits assumed, chain 3 of 3, further chain): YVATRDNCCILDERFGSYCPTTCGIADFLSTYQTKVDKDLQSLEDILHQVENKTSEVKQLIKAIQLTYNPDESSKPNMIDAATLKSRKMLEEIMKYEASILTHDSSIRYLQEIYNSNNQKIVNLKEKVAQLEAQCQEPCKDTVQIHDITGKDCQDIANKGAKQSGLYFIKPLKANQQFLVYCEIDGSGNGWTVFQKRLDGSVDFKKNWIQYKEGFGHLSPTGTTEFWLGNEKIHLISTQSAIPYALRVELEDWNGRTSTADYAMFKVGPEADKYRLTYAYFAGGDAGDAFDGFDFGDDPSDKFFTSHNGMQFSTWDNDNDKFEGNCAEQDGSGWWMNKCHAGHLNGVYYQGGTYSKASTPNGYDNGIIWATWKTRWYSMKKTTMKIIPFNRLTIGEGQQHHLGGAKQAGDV

[3] = biological target: human 17-mer C-terminal Fg γ-chain peptide (…) (human); assay: human 17-mer peptide
[4] = biological target: human 15-mer C-terminal Fg γ-chain peptide (…) (human); assay: human 15-mer peptide

Sequence of recombinant ClfA229-545 (S. aureus clumping factor A, N2N3 domains), 6xHis tagged (Staphylococcus aureus) (Q53653 229-545 limits assumed): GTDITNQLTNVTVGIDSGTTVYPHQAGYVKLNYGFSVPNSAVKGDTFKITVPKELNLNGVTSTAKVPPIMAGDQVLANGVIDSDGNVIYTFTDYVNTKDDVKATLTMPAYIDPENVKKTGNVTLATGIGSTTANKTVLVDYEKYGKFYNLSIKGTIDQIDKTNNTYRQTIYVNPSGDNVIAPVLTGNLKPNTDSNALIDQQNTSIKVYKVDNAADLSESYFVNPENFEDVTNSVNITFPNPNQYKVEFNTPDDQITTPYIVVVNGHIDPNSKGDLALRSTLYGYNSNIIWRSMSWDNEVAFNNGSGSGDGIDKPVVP

How did the N [1] turn out when “human 15-mer C-terminal Fg γ-chain peptide (…)” was run?
Its N is 1.29.

And the ΔH [1]?
Its ΔH is -3640.

And the ΔS [1]?
The ΔS was 8.03.

How did the N [2] turn out when “sheep (ovine) 15-mer C-terminal Fg γ-chain peptide (…)” was run?
Its N is 16.2.

What about the ΔH [2] of the same substance?
The ΔH was 1340.

What about the ΔS [2] of the same substance?
Its ΔS is 20.4.

Which results are given for “recombinant ClfA229-545 (S. aureus clumping factor A, N2N3 domains), 6xHis tagged (from UniProt Q53653 229-545)”?
EC50 (read off the curve) (human fibrinogen (human)): 0.2 µM; Kd [3]: 23 µM; Kd [4]: 40 µM
